Assay results reported in US20230011234A1 (JOINT STOCK COMPANY BIOCAD, published 2023).

T1: Human CD122/IL-2RB Protein (Fc Tag) (human, UniProt P14784 27-240)
T1 construct: No gamma chain is mentioned; also called human IL2βγ; human IL2βγ-Fc; not shown: Fc tag
T1 sequence (looked up): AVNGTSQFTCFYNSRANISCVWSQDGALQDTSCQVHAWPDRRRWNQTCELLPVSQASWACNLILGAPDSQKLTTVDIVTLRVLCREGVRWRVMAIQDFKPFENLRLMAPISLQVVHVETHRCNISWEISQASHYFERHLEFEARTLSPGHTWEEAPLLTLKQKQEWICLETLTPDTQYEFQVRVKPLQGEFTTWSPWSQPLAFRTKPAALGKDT


Legend:
[1] = molecular target: T1, Human CD122/IL-2RB Protein (Fc Tag); test: BLI (OctetRed 96), CD122/IL-2RB-Fc in solution; Response 0 and KD 0
Experimental: (§1) The affinity constants for binding of IL15SA bispecific immunocytokines (hereinafter referred to as anti-PD1-Fab-CK_IL15Ra_Hc_IL15CH1FcknobLALA anti-PD-L1-Fab-CK_IL15Ra_Hc_IL15CH1FcknobLALA) to IL2βγ and human PD-1/PD-L1 receptors were measured using OctetRed 96 according to the ForteBio instructions. AR2G biosensors were pre-rehydrated for an hour in mQ. After the activation of biosensors, the bispecific immunocytokines at a concentration of 25 μg/ml in acetate buffer pH4 were non-specifically (by NH₂ groups) immobilized onto the biosensor. The sensors were then immersed into wells containing Human CD122/IL-2RB Protein (Fc Tag) or PD-1-Fc receptor or PD-L1-Fc receptor (1 and 0.5 μg/ml) in PBS buffer supplemented with 0.1% Tween-20 and 0.1% BSA to associate the bispecific super-agonist and the test receptor. The sensors were then immersed in a buffer solution for a subsequent dissociation step.
(§2) The instrumental data, after subtracting a reference signal, were analyzed using Octet Data Analysis software (Version 8.0) in accordance with the standard procedure and using 1:1 interaction model.

PD-L1-Fc receptor [2] = molecular target: T2, PD-L1-Fc receptor (human, UniProt Q9NZQ7 19-238, limits assumed); test: BLI (OctetRed 96), PD-L1-Fc in solution; Response 0 and KD 0
T2 construct: also called human PD-L1 receptor; not shown: Fc
T2 sequence (Q9NZQ7 19-238 limits assumed): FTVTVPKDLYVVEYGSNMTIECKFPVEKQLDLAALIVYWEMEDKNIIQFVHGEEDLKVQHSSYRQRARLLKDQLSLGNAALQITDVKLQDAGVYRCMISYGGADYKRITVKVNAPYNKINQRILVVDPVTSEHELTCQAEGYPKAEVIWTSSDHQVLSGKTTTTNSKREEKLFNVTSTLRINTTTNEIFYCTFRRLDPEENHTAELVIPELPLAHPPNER
Experimental: as §1, §2

[3] = molecular target: PD-1 on Jurkat NFAT-FLuc PD-1 cells (UniProt Q15116 25-288, limits assumed); test: cell-based or functional assay
PD-1 on Jurkat NFAT-FLuc PD-1 cells, sequence (Q15116 25-288 limits assumed): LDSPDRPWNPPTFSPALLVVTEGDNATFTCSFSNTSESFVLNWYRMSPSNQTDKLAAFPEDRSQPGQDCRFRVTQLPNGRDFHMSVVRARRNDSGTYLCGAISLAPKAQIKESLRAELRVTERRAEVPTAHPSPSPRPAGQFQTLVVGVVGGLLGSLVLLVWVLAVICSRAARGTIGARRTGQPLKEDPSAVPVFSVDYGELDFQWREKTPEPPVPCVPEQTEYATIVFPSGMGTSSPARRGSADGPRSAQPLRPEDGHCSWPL

PD-1-Fc receptor = molecular target: T3, PD-1-Fc receptor (human, UniProt Q15116 25-167, limits assumed); test: BLI (OctetRed 96), PD-1-Fc in solution, 1:1 model
T3 construct: also called human PD-1 receptor; not shown: Fc
T3 sequence (Q15116 25-167 limits assumed): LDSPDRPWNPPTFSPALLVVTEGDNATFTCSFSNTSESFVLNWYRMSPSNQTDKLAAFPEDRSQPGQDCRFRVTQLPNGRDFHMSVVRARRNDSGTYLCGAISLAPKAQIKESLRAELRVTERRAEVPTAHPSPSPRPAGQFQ
Experimental: as §1, §2

PD-L1-Fc receptor [4] = molecular target: T2, PD-L1-Fc receptor; test: BLI (OctetRed 96), PD-L1-Fc in solution, 1:1 model

| binding result [1] | binding result (PD-L1-Fc receptor [2]) | EC50; NFAT-luciferase luminescence (RLU x 10^-3) in co-culture of Jurkat NFAT-FLuc PD-1 cells and Raji PDL1 cells with aCD3/aTAA1 at 1 ng/ml; relief of PD-1/PDL1 inhibition [3] [µg/mL] | Kd (PD-1-Fc receptor) [nM] | Kd (PD-L1-Fc receptor [4]) [nM] | Binder |
| --- | --- | --- | --- | --- | --- |
| no binding (tested: 1 and 0.5 µg/ml) | no binding (tested: 1 and 0.5 µg/ml) | 0.027 | 0.186 | – | prolgolimab (antibody, V domains shown, also called Anti-PD-1 prologolimab; BCD100) VH: QVQLVQSGGGLVQPGGSLRLSCAASGFTFSSYWMYWVRQVPGKGLEWVSAIDTGGGRTYYADSVKGRFAISRVNAKNTMYLQMNSLRAEDTAVYYCARDEGGGTGWGVLKDWPYGLDAWGQGTLVTVSS VL: QPVLTQPLSVSVALGQTARITCGGNNIGSKNVHWYQQKPGQAPVLVIYRDSNRPSGIPERFSGSNSGNTATLTISRAQAGDEADYYCQVWDSSTAVFGTGTKLTVLQ |
| – | – | – | – | < 0.001 | BCD-135 (antibody) chain 1: not shown chain 2: QTVVTQEPSLSVSPGGTVTLTCGLSSGTVTAINYPGWYQQTPGQAPRTLIYNTNTRHSGVPDRFSGSISGNKAALTITGAQAEDEADYYCALYMGNGGHMFGGGTKLTVLGQPKAAPSVTLFPPSSEELQANKATLVCLISDFYPGAVTVAWKADSSPVKAGVETTTPSKQSNNKYAASSYLSLTPEQWKSHRSYSCQVTHEGSTVEKTVAPTECS |
